We go through 17 molecules from paper PMC9270183 (The Journal of Experimental Medicine, 2022).

B1: V048 (antibody, V domains shown)
VH: QVQLVQSGAEVKKPGASVKVSCKASGYTFTSYVISWVRQAPGQGLEWMGWISAYNGNTNYAQKLQGRVTMTTDTSTSTAYMELRSLRSDDTAVYYCARDVAGITMIVEEVIDAFDIWGQGTMVTVSS
VL: SYELTQPSSVSVSPGQTARITCSGDVLAKKYARWFQQKPGQAPVLVIYKDSERPSGIPERFSGSSSGTTVTLTISGAQVEDEADYYCFSAPDNNRVFGGGTKLTVL
notes: IgG; donor BRA15; source: recombinant monoclonal IgG, produced and purified as previously described
B2: V007 (antibody, V domains shown)
VH: QVQLVQSGAEVKKPGSSVKVSCKASGDTFSTYTISWVRQAPGQGLEWMGRIIPILGVGNYAQKFQGRVTITADKSTSTAYMELSSLRSEDTAVYYCAHTTPPGDAFDIWGQGTMVTVSS
VL: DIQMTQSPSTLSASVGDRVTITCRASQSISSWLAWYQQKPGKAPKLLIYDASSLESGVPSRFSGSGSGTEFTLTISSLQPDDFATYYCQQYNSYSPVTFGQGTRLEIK
notes: IgG; donor BRA13; source: recombinant monoclonal IgG, produced and purified as previously described
B3: V043 (antibody, V domains shown)
VH: QLQLQESGPGLVKPSETLSLTCTVSGGSISSNNYYWGWIRQPPGKGLECIGTIYYSGNTYYNPSLKSRVTISVDTSKNQFSLKLGSVTAADTAVYYCARQQWLRDAFHIWGQGTMVTVSS
VL: NFMLTQPHSVSESPGKTVTISCTGSSGSIASNYVQWYQQRPGSAPTIVIYEDNQRPSGVPDRFSGSIDSSSNSASLTISGLKTEDEADYYCQSYDSNIHVVFGGGTKLTVL
notes: as for B1
B4: V033 (antibody, V domains shown)
VH: QVQLVQSGAEVKKPGASVKVSCKASGYTFTSYGISWVRQAPGQGLEWMGWISAYNGNTNYAQKLQGRVTMTTDTSTSTAYMELRSLRSDDTAVYYCARGRFCSSTSCYRAAPNYYYYYMDVWGKGTTVTVSS
VL: NFMLTQPHSVSESPGKTVTISCTRSSGSIASNYVQWYQQRPGSAPTTVIYEDNQRPSGVPDRFSGSIDSSSNSASLTISGLKTEDEADYYCQSYDSSNPYWVFGGGTKLTVL
notes: IgG; donor BRA14; source: recombinant monoclonal IgG, produced and purified as previously described
B5: V039 (antibody, V domains shown)
VH: QVQLQESGPGLVKPSQTLSLTCTVSGGSISSGSYYWSWIRQPAGKGLEWIGRIYTSGSTNYNPSLKSRVTISVDTSKNQFSLKLSSVTAADTAVYYCARADYSDYDNYYFDYWGQGTLVTVSS
VL: B4 VL with T19A, Q35H, A44S, E51D, P99H, Y100N
notes: as for B1
B6: V042 (antibody, V domains shown)
VH: QLQLQESGPGLVKPSETLSLTCTVSGGSISSSTNYWGWIRQPPGKGLEWIGSIDYSGSTYYNPSLKSRVTMSVDTSKNQFSLKLSSVTATDTAMYYCARHVIDDSRGYYPAALDHWSQGTLVTVSS
VL: EIVLTQSPATLSLSPGERATLSCRASQSVNNYLAWYQQKPGQAPRLLIYDASNRATGVPARFSGSGSGTDFTLTISSLEPEDFAVYFCQQRSNWPPMYTFGQGTKLEIK
notes: as for B1
B7: V050 (antibody, V domains shown)
VH: EVQLVESGGGLVKPGGSLRLSCAASGFSFSNAWMSWVRQAPGKGLEWVGRIKSKTDGGTTDYAAPVKGRFTISRDDSQNTLYLQMNSLKTEDTAVYYCITDRFRVHIRGYYGQGTLVTVSS
VL: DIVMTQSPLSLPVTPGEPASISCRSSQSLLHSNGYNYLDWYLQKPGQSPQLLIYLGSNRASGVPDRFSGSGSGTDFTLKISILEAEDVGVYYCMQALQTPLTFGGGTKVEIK
notes: as for B1
B8: V038 (antibody, V domains shown)
VH: QVQLVQSGAEVKKPGASVKVSCKASGYTFTGYYVHWVRQAPGQGLEWMGWINPNSGGTNFAQRFQGRVTMTRDTSISTAYMELSRLRSDDTAVYYCARGITVYGVAPDAFDIWGQGTMVTVSS
VL: DIQMTQSPSSLSASVGDRVTITCQASQDISNYLNWYQQKPGKAPKVLIYDASNLEPGVPSRFSGSGSGTDFTFTISSLQPEDIATYYCQQYDNLITFGQGTRLEIK
notes: as for B1
B9: V051 (antibody, V domains shown)
VH: QVQLVESGGGVVQPGRSLRLSCEASGFTFSTYAMHWVRQAPGKGLEWVAVISYDGNNKYYADSVKGRLTVSRDNSKNTLYLQMNSLRAEDTAEYYCARDDGGYCSSLSCPMDVWGQGTTVTVSS
VL: SYELTQPPSVSVAPGKTARITCGGNSIGSKSVHWYQQRPGQAPVLVIYYDSDRPSGIPERFSGSNSGNTATLTISRVEAGDEADYYCQVWDSTLVFGGGTKLTVL
notes: as for B1
B10: V049 (antibody, V domains shown)
VH: QVQLVESGGGVVQPGRSLRLSCAASRFPFSNYGMHWVRQAPGKGLEWVAVISFDGNNKYYGDSVKGRLTISRDNSKNTLYLQVKSLRPEDTAVYYCAKDISTGLSLALFRSPDGEGMDVWGQGTTVTVSS
VL: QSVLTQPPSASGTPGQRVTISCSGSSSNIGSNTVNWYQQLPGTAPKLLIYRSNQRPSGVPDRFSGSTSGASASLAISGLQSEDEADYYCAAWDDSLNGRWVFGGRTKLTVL
notes: as for B1
B11: V037 (antibody, V domains shown)
VH: EVQLVESGGGLVQPGGSLRLSCAASEVIVSSNYMSWVRQAPGKGLEWVSVLYSGGSTFYADSVKGRFTISRDNSKNTLYLQMNSLRAEDTAVYYCARDLGPMGAFDIWGQGTMVTVSS
VL: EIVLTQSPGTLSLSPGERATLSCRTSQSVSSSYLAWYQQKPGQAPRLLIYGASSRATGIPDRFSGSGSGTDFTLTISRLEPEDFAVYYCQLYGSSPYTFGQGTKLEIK
notes: as for B1
B12: V032 (antibody, V domains shown)
VH: QVQLVESGGGVVQPGRSLRLSCAASGFTFSSYGMHWVRQAPGKGLEWVAVISYDGSNKYYADSVKGRFTISRDNSKNTLYLQMNSLRAEDTAVYYCAKVSGPYCSSTSCYTGYWDYWGQGTLVTVSS
VL: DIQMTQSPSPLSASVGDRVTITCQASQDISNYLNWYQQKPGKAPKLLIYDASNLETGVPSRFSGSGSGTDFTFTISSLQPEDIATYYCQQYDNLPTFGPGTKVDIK
notes: as for B4
B13: V045 (antibody, V domains shown)
VH: QVQLVQSGAEVKKPGASVKVSCKASTYTFTSYYIHWVRQAPGQGLEWMGIINPSGGSTSYAQNFQGRVTMTRDTSTSTVYMELSSLRSEDTAVYYCARGVLIPAAGGDFDYWGQGTLVTVSS
VL: QSALTQPRSVSGSPGQSVTISCTGTSSDVGGYKYVSWYQQHPGKAPKLMIYDVSKRPSGVPDRFSGSKSGNTASLTISGLQAEDEADYYCCSYAGSYSWVFGGGTKLTVL
notes: as for B1
B14: V004 (antibody, V domains shown)
VH: QVQLQESGPGLVKPSQTLSLTCTVSGGSISSGSYYWSWIRQPAGKGLEWIGRIYTSGSTNYNPSLKSRVTISVDTSKNQFSLKLSSVTAADTAVYYCARDTTDDYYVIWGQGTLVTVSS
VL: DIQMTQSPSTLSASVGDRVTITCRASQSIRSWLAWYQQKPGKAPKLLIYDASSLESGVPSRFSGSGSGTEFTLTISSLQPDDFATYYCQQYNTHFRTFGQGTKVEIK
notes: as for B2
B15: V054 (antibody, V domains shown)
VH: QVQLVESGGGVVQPGRSLRLSCAASGFPFSSFGMHWVRQAPGKGLEWVAVISSDGSNKYYADSVKGRFTISRDNSKNTLYLQMNSLRAEDTAVYYCAKEFTYVVVTALWGTENFDIWGQGTMVTVSS
VL: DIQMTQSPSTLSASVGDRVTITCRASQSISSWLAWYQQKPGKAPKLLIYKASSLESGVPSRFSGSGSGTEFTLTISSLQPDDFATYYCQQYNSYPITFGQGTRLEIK
notes: as for B1
B16: V044 (antibody, V domains shown)
VH: QVQLVQSGAEVKKPGASVKVSCKASGYTFTSYDINWVRQATGQGLEWMGWMNPNSGYAGYTQKFQGRITMTRNTSISTAYMELSSLRSEDTAVYFCARISSPTRLDPWGQGTLVTVSS
VL: NFMLTQPHSVSESPGKTVTISCSRSRGSIASSFVQWYQQRPGSSPTTVIYDDNQRPSGVPDRFSGSIDSSSNSASLTISGLKTEDEADYYCQSYDSISWVFGGGTKLTVL
notes: as for B1
B17: V046 (antibody, V domains shown)
VH: EVQLVESGGGLVQPGRSLRLSCAASGFTFEDYAMHWVRQAPGKGLEWVSGVSWNSGTIGYADSVKGRFIISRDNAKNSLYLQMNSLRAEDTALYYCANLGPTYYDFSRPTPMDVWGKGTTVTVSS
VL: QSALTQPASVSGSPGQSITISCTGTSSDVGGYNYVSWYQQHPGKAPKLIIYDVSNRPSGVSNRFSGSKSGNTASLTISGLQAEDEADYYCSSYTSSSTWVFGGGTKLTVL
notes: as for B1

Changes are numbered by the printed parent chain.

In the assay the target is SARS-CoV-2 Wuhan-Hu-1 RBD (SARS-CoV-2 Wuhan-Hu-1, UniProt P0DTC2). Briefly: BLI. The following applies: both partners purified.
For B1, the Kd (commonly the free concentration of one partner at which half of the binding sites on the other are occupied at equilibrium, for simple one-to-one binding) was found to be 5.02 nM.

In turn, B2 yielded a Kd of 3.59 nM. As to B3, binding was put at a Kd of 4.46 nM. The result for B4 reads 4.68 nM; that for B5, 1.09 nM; that for B6, 32.5 nM. As for B7, the Kd worked out at 56.9 nM.

Consider B8, for which the Kd is 5.73 nM.

B9 registered a Kd of 14.5 nM. Molecule B10 registered a Kd of 12.8 nM.

Regarding B11, the affinity, expressed as Kd, was 6.9 nM. Take B12: the affinity, expressed as Kd, was 8.3 nM. This Kd and that of the molecule before are within 1.5-fold of each other.

B13 registered a Kd of 2.95 nM. Molecule B14 returned a Kd of 3.59 nM. As for B15, binding was characterised by a dissociation constant (Kd) of 17.8 nM. Molecule B16 showed a Kd of 5.25 nM. This Kd lies about 3.4-fold lower than the previous one. Turning to B17, binding was characterised by a dissociation constant (Kd) of 0.698 nM. Against the preceding molecule, the Kd is about 7.5-fold lower.
